Measurements: the DeepSol protein solubility set

experiment: soluble on expression in E. coli; label from the status in PepcDB or PDB records

| Sequence | soluble on expression in E. coli |
| --- | --- |
| MGSDKIHHHHHHMSTSYEISSLPWLSASHELLLKQVRLGSLSHGHLLDVHTQLGGDVLAQSMAKLILCQALTPVGACGQCKACLLVSAGTHPDLHSVAPDGNQIKVDQIRSLCSSLTSTAQQGGKRVAIIYQSERMNTASANALLKTLEEPGKETFLLLQTDRTAALLATVKSRCQTLSITPPSNAEVNAWLKGQQLLPVVPDGAKPHDVTWCLSVVGGPIQLAQSLQSDKYQTLLNYRKEWAMSLSSGHLCGSLLALKDNQLIDALQVLYLYLRHFVLKSNDINAFTKAQVITLAAKIMEMRHKLTTMAAVNTQALCMDYVLAFRQLTHTHR | not soluble |
| MAAVSEFRLLQLPERAQRISLSHMSYNSIFSLSLCSTKKNKRPQGVPIRTLTYEGIEITSDRINRKHPVSDTFLSKAGFLDFYNCTYKSSQFIHKFLIHNTTTVFTRGVPRYNLNDLLVSNGQKIYVQVGRGIIFLEKDVNKFLKHWIRGSNRELKSLAFRAPMNMEIEHAIETILKGICYKDAREEDAASIKLVHICNGNTFKHPIIKISGFRIKRFDGTNATVVIRLLNANSVCFTSYVLHFLHNTSIMAAVSPFRLLQLPQRAQRISLSHMSSVSVFSLSLCATKNTKDLVRSLNLKCIRLCLEFFDDLILSICFEGCIIDFYLYMLNSSQKITPGLCAPKNVQVSTNDVKNFKWERPNLKFRNWIDHFLYILNISTLDVAMGKGVRVKKLSYHILDMTSNETNRTNSVNDTFLSKAEFIVLSNCTYETSQSIHKFLICNNATLFSNVFSPYNLNDLLISNCQNLLVNVDRGNIFLGQDVNKFLKHWIRGSNVTLKCLALEAPMNMERELVIETILEGIDYKVKEEEVSVYKKMLDIFNHGNPSITKIRGFRITRFDGTNCDVVIRTCNPSVMRYSLNMFIF | not soluble |
| MRRLLKEQFEAELPEDIRFYMGGKSRVYAYKSCEFDEIASHRGIYFGTIERDGLRLSIEGSFIAGKLAKKNVIELDEESFGRWMRGEDIEADVKGYCIVKHGSYFAGCGKGNGRVLRNFVPKDRRVID | not soluble |
| GPGSMLRRTLRRLMPSDAIGSVHPDVLWGYQQGQYAGPGWANFVKSLPLETLAMQGGSTMANLNDRAGTFLDPEDPRHPLALMQFGIMGKMDGTFHQLAYGDFGRVPKGSRLMQVLYENYLEPFSMNRVCAQLYFYQKVPNNYHASVDATAEYVGQTASLVGQVVVGLGACIMEGVTIRADTNCVYIAEGVQILENTCIMSDAPTDLLAYQRHELLNPYQQWDGMDGVTRIMPNTIIESNCYLDGCSIGSFNRIGHNTKIMKGVTTGIMVHIMPGSVVTADTKIGDGELWGGAPACKIGEVSKFEYKRPYYASLLHRESVAESYRNMSRYGDQFVHYMNAMGQLETLMIHYEDHVTPGIKAKVRDFEEGREPFHHTITRIAQGWSPANRPDDKNFAMAPPAPGVKLFAEHNTDSSPSEWNGSYANITNIFNDFRW | not soluble |
| MGSSHHHHHHSSGRENLYFQGMTLKAGIVGIGMIGSDHLRRLANTVSGVEVVAVCDIVAGRAQAALDKYAIEAKDYNDYHDLINDKDVEVVIITASNEAHADVAVAALNANKYVFCEKPLAVTAADCQRVIEAEQKNGKRMVQIGFMRRYDKGYVQLKNIIDSGEIGQPLMVHGRHYNASTVPEYKTPQAIYETLIHEIDVMHWLLNEDYKTVKVYFPRQSSLVTTLRDPQLVVMETTSGINIVVEVFVNCQYGYDIHCDVTGEKGMAELPTVASAAVRKAAKYSTDILVDWKQRFIDAYDIEFQDFFDRLNAGLPPAGPTSWDGYLAAVTADACVKSQETGNTEIVELPSKPDFYK | soluble |
| KFTLGQFFGAAKIAGKAFMFKADEPEDLIAKIVEMADAARKGGFLALEEMEINNSFMQKGIDLLVDGHDADVVRAALQKDIALTDERHTQGTGVFRAFGD | not soluble |
| GSHMAITGTIAAIATAIVPQQGSVGIVRVSGSQAIAIAQTLFDAPGKQVWESHRILYGYIRHPQTRQIVDEALLLLMKAPRSYTREDVVEFHCHGGIIAVQQVLQLCLESGARLAQPGEFTLRAFLNGRLDLTQAESIADLVGARSPQAAQTALAGLQGKLAHPIRQLRANCLDILAEIEARIDFEEDLPPLDDEAIISDIENIAAEISQLLATKDKGELLRTGLKVAIVGRPNVGKSSLLNAWSQSDRAIVTDLPGTTRDVVESQLVVGGIPVQVLDTAGIRETSDQVEKIGVERSRQAANTADLVLLTIDAATGWTTGDQEIYEQVKHRPLILVMNKIDLVEKQLITSLEYPENITQIVHTAAAQKQGIDSLETAILEIVQTGKVQAADMDLAINQRQAAALTQAKMSLEQVQATITQQLPLDFWTIDLRGAIQALGEITGEEVTESVLDRIFSRFCIGK | soluble |
| FNKIKDSVKQKIDSMGDKGTYGVSASHPLAVEEGMKVLKNGGSAVDAAIVVSYVLGVVELHASGIGGGGGMLIISKDKETFIDYRETTPYFTGNQKPHIGVPGFVAGMEYIHDNYGSLPMGELLQPAINYAEKGFKVDDSLTMRLDLAKPRIYSDKLSIFYPNGEPIETGETLIQTDLARTLKKIQKEGAKGFYEGGVARAISKTAKISLEDIKGYKVEVRKPVKGNYMGYDVYTAPPPFSGVTLLQMLKLAEKKEVYKDVDHTATYMSKMEEISRIAYQDRKKNLGDPNYVNMDPNKMVSDKYISTMKNENGDALSEAEHES | soluble |
| MGSSHHHHHHGGTGENLYFQGGSGMKGVTSFTVYGLVPAADFQRCAEAAAYVNDKYPESYAVIVKLELPRDFAERRAAWASAGHLPSQQQQPTDASFGESGGSATTASTAAAELAAVLVEQHGSDSEPQCLLTAETFLHNIATHTDYKPDATEDYYTARGKRAWRAFLASRGRQYCWMDVSVDGVAVGRVWFELYASVAPLTCKNFCELCRGTTVAMGDTVAHSSVFDPPPAQHIGYKGTTFFRTLKDAWVMGGDVTGAHSGNGGYSCYGRCFPDETYAVPHDAAGILGMCNDGPHTSSSAFYITLRPMSWMNGKYVAFGRVMDGMHVVDAIHAVEARHNQAPKASIVITDCDVLDTSV | soluble |
| MGSDKIHHHHHHMVSPVVARIIELLPDSCVGFIGKRILNMYLNKYADINVHGMENLKGIDKPIMFIGNHLSNSDGLVLNKVLKDYDVTFVAGVKLKGDAITNLGTYCVKTTEIKPNTADKDGIYRVIDILKSNHNILMFPEGTRSRTGAMIEAKRGPLFIAKLSKAIIVPVGICGSEKLLPINKEGNMSNENFHHAKVEVNIGKPFYFDKRMKEESKKDYEKRALDNAMYKIAELIPENYRGVYSDIKKVL | not soluble |
| MSLSPAELHADSIVIDGLIIAKWNRELFEDMRKGGLTAANCTVSVWEGFQATVNNIAASNKLIRDNSDLVIPVRSTADIRKAKEQGKTGILYGFQNAHAFEDQIGYVEVFKQLGVGIVQMCYNTQNLVGTGCYERDGGLSGFGREIVAEMNRVGIMCDLSHVGSKTSEEVILESKKPVCYSHCLPSGLKEHPRNKSDEELKFIADHGGFVGVTMFAPFLKKGIDSTIDDYAEAIEYVMNIVGEDAIGIGTDFTQGHGHDFFEWLTHDKGYARRLTNFGKIVNPLGIRTVGEFPNLTETLLERGMPERVVRKVMGENWVRVLRDVEGHHHHHH | not soluble |
| AHHHHHHGSIIIYTTFPTWESAEKVTKALLEERLVACANLREHKAFYWWQGKIEEDNEIGVILKTREDLWEEVKKRIKELHPYTVPAIIKINVEDVNEEYLKWLLEETKST | not soluble |
| MTQIVVGENEHIESALRRFKREVSKAGIFQDMRKHRHFETPIEKSKRKKLALHKQSKRRFRTLEHHHHHH | not soluble |
| MSLSCPRCGWVHYINPLPVAIALTVNRNNELLMIRRAHEPAFNEWALPGGFLEAGERPEEGCLRELFEETSLEGTIDKLIGVWHLESGLYGSLIAVAYRVIAAHERISINHEVFEAGFYRPDNMPPVRIPLHRQIIAESRWPERDLSLTEGHHHHHH | not soluble |
| MFKNLIWLKEVDSTQERLKEWNVSYGTALVADRQTKGRGRLGRKWLSQEGGLYFSFLLNPKEFENLLQLPLVLGLSVSEALEEITEIPFSLKWPNDVYFQEKKVSGVLCELSKDKLIVGIGINVNQREIPEEIKDRATTLYEITGKDWDRKEVLLKVLKRISENLKKFKEKSFKEFKGKIESKMLYLGEEVKLLGEGKITGKLVGLSEKGGALILTEEGIKEILSGEFSLRRS | soluble |
